For experiment [1], the target named is laminin (Engelbreth-Holm-Swarm tumor laminin, free of entactin) (mouse (endogenous in EHS tumor)) (UniProt P19137). The experiment in a line: sedimentation assay of polymerization.
Experiment [2] has as its target laminin/entactin complex (laminin-nidogen complex) of the EHS tumor (mouse (endogenous in EHS tumor)) (UniProt P19137). As to the kind of experiment: extraction of laminin from tissue matrix.
Experiment [3] has the same target. As to the kind of experiment: sedimentation assay of polymerization.

On to “laminin (Engelbreth-Holm-Swarm tumor laminin, free of entactin), P19137 25-3083; P02469 22-1786; P02468 34-1607”, for which the critical concentration of polymerization in experiment [1] came out at 0.1 mg/mL.
In experiment [2], “laminin/entactin complex (laminin-nidogen complex) of the EHS tumor, P19137 25-3083; P02469 22-1786; P02468 34-1607; P10493 29-1245” showed a concentration of free laminin over the EHS matrix in buffer at 37 C of 0.08 mg/mL and a percent of total laminin of the EHS matrix extracted by 10 mM EDTA of 79%. In experiment [3], this substance returned a critical concentration of polymerization of 0.1 mg/mL.

The values above are taken from publication PMC2289474.
